B1: Tyrosine-protein phosphatase non-receptor type 1 (Homo sapiens), P18031 (parent)
chain: MEMEKEFEQIDKSGSWAAIYQDIRHEASDFPCRVAKLPKNKNRNRYRDVSPFDHSRIKLHQEDNDYINASLIKMEEAQRSYILTQGPLPNTCGHFWEMVWEQKSRGVVMLNRVMEKGSLKCAQYWPQKEEKEMIFEDTNLKLTLISEDIKSYYTVRQLELENLTTQETREILHFHYTTWPDFGVPESPASFLNFLFKVRESGSLSPEHGPVVVHCSAGIGRSGTFCLADTCLLLMDKRKDPSSVDIKKVLLEMRKFRMGLIQTADQLRFSYLAVIEGAKFIMGDSSVQDQWKELSHEDLEPPPEHIPPPPRPPKRILEPHNGKCREFFPNHQWVKEETQEDKDCPIKEEKGSPLNAAPYGIESMSQDTEVRSRVVGGSLRGAQAASPAKGEPSLPEKDEDHALSYWKPFLVNMCVATVLTAGAYLCYRFLFNSNT

Variants of: B1
Details: with insr_human INSR

| Variant | effect of a mutation on the interaction |
| --- | --- |
| D181A | increasing interaction |

Reference: IntAct's records for PubMed 16582879
